Key:
nucleolin (NCL) = nucleolin (NCL) (human (human recombinant protein), UniProt P19338 1-710); assay: SPR; HEPES-KCl; SPR (Biacore T100, CM5 chip), HEPES-KCl buffer (composition, pH and temperature not given), oligos 15.6-1000 nM, heated 95 C 5 min and cooled to room temperature, 20 uL/min, 120 s contact and dissociation, 1 M KCl regeneration
[1] = molecular target: gp120 envelope glycoprotein (HIV-1 IIIB, UniProt P04578 33-511); assay: SPR; HEPES-KCl; up to 1000 nM; SPR (Biacore T100, CM5 chip), HEPES-KCl buffer (composition, pH and temperature not given), oligos 15.6-1000 nM, heated 95 C 5 min and cooled to room temperature, 20 uL/min, 120 s contact and dissociation, 1 M KCl regeneration; conditions: protein: recombinant

nucleolin (NCL), sequence (P19338 whole entry): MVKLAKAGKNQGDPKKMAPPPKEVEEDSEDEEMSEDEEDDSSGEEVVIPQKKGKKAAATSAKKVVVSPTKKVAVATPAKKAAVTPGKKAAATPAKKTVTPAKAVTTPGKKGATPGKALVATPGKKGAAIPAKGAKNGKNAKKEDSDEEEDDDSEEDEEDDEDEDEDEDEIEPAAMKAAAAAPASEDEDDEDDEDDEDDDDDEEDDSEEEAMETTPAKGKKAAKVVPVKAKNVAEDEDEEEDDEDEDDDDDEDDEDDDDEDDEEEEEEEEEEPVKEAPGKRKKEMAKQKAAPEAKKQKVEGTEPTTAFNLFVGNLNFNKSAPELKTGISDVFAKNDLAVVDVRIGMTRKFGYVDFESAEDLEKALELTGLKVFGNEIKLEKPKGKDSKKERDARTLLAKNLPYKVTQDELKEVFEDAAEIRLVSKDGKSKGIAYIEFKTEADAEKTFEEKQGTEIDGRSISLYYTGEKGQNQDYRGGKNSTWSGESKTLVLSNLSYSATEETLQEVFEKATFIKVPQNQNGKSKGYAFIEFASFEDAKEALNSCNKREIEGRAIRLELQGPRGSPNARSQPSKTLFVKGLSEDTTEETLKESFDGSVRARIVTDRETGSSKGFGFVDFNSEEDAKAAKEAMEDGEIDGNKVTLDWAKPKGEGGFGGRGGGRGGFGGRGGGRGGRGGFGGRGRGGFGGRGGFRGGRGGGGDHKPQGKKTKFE

B1: LTR-III (structured_DNA)
DNA: GGGAGGCGTGGCCTGGGCGGGACTGGGG
- Kd (nucleolin (NCL); G4): 76.3 nM

B2: AS1411 (structured_DNA)
DNA: GGTGGTGGTGGTTGTGGTGGTGGTGG
- Kd (nucleolin (NCL); G4, described as dimeric): 34.2 nM

B3: SCRA (ssDNA)
DNA: TTTTTGGAGCGTGTGTGCGCGAGAGCGTGCGCGTGGCGAGCGTGGAGTGGTTTTT
- binding result ([1]; G-rich, non-G4): no binding

B4: CRO26 (ssDNA)
DNA: CCTCCTCCTCCTTCTCCTCCTCCTCC
- binding result ([1]; C-rich, negative control): no binding

Source: PMC4840014, “The G-quadruplex-forming aptamer AS1411 potently inhibits HIV-1 attachment to the host cell”
